According to patent publication US20230060388A1:

Columns and labels:
[1] = molecular target: human TIGIT expressed on cells (stably transfected Jurkat cells) (human) (UniProt Q495A1); assay: whole cell binding, flow cytometry, n=3 (FIG. 10A)
[2] = molecular target: recombinant cynomolgus TIGIT (cynomolgus monkey); assay: ELISA on recombinant cyno-TIGIT
[3] = molecular target: human TIGIT expressed on cells (stably transfected Jurkat cells) (human) (UniProt Q495A1); assay: flow cytometry on h-TIGIT transfected Jurkat cells (whole cell binding), Alexa Fluor 488; representative of three experiments
[4] = molecular target: human TIGIT expressed on cells (stably transfected Jurkat cells) (human) (UniProt Q495A1); assay: cell-based or functional assay
[5] = molecular target: recombinant human TIGIT extracellular domain (ECD) (human) (UniProt Q495A1); assay: ELISA on recombinant human TIGIT ECD
recombinant human TIGIT extracellular domain (ECD) (human), sequence (Q495A1 22-138 limits assumed): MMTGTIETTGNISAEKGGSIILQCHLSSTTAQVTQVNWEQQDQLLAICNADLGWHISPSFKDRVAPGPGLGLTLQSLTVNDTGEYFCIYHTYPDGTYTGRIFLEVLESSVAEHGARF

[6] = molecular target: recombinant mouse TIGIT (mouse) (UniProt P86176); assay: ELISA on recombinant mouse-TIGIT
recombinant mouse TIGIT (mouse), sequence (P86176 29-148 limits assumed): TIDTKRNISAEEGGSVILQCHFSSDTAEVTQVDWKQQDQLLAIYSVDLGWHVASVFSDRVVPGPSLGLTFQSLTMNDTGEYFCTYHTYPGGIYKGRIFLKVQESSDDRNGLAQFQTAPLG

human TIGIT expressed on cells (stably transfected Jurkat cells) (human), sequence (Q495A1 22-244 limits assumed): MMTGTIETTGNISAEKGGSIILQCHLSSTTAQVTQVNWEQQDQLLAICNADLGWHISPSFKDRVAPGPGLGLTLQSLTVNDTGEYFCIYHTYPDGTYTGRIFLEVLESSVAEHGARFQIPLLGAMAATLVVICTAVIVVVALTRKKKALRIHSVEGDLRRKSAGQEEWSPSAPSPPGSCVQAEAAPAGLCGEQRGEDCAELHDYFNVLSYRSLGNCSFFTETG

EC50 [1] [nM] | EC50 (read off the curve) [2] [µg/mL] | EC50 (read off the curve) [3] [nM] | EC50, NFAT luciferase reporter assay (n=3) [4] [nM] | EC50 (read off the curve) [5] [µg/mL] | EC50 (read off the curve) [6] [µg/mL] | Substance
0.61 | 0.1 | 0.5 | 0.72 | 0.1 | – | Reference Ab 2 (same amino acid sequences as Tiragolumab) (antibody)
– | – | – | – | – | 0.08 | anti-mouse TIGIT reference antibody (Biolegend #142101)
